The text below walks through data of patent US7556950 (Takeda / Millennium, dated 2009).

The data set concerns the molecule itself. Nature of the data set: analytical size-exclusion chromatography; self-association (homodimer) of the purified catalytic domain. For orientation: In gel filtration, larger molecules generally elute earlier.

B1: recombinant catalytic domain of human phosphodiesterase 4-D3 (PDE4-D3), residues 253-580 of SEQ. ID No. 1, after removal of the N-terminal 6x-histidine tag … (enzyme)
chain: GAMDPTEQEDVLAKELEDVNKWGLHVFRIAELSGNRPLTVIMHTIFQERDLLKTFKIPVDTLITYLMTLEDHYHADVAYHNNIHAADVVQSTHVLLSTPALEAVFTDLEILAAIFASAIHDVDHPGVSNQFLINTNSELALMYNDSSVLENHHLAVGFKLLQEENCDIFQNLTKKQRQSLRKMVIDIVLATDMSKHMNLLADLKTMVETKKVTSSGVLLLDNYSDRIQVLQNMVHCADLSNPTKPLQLYRQWTDRIMEEFFRQGDRERERGMEISPMCDKHNASVEKSQVGFIDYIVHPLWETWADLVHPDAQDILDTLEDNREWYQSTIPQSP
notes: The limits 24-357 come from the claims, which define the protein of the Rolipram complex this way; The purified protein was buffer-exchanged with a 2-molar excess of the small molecule Rolipram; Expressed in Hi5 insect cells; also called PDE4D3 catalytic domain; purified PDE4-D3
With B1, the binding result was “binds”.
